The supplement of paper PMC10567573

B1: SPOPL (parent)
chain: YTGRAPNLDKMADNLLAAADKYAL
B2: CDKL4 (parent)
chain: AVKKFVESEDDPVVKKIALREIRM

Variants of: B1
Experiment: protein stability index of a GFP-peptide fusion (GPS, HEK-293T) (PSI 1-6); higher = more stable
Conditions: c terminus: a fixed tail appended
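Note: lentivirally expressed fusions sorted by FACS into six bins by GFP to DsRed ratio, PSI derived from sequencing read proportions per bin multiplied by bin number.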

Protein stability index: each site, then its substitutions
A12: E 2.05, T 2.97, I 2.87, W 1.32, Y 1.77, N 2.88, S 2.2, Q 2.07, M 2.64, L 1.53, P 2.54, F 1.58, K 1.97, R 1.56, G 2.36, D 2.92, H 2.33, C 2.56
D9: S 1.78, H 2.17, N 1.65, I 1.37, R 1.2, Q 2.84, V 3.1, K 2.34, F 3.79, A 2.12, C 1.99, T 1.85, W 2.67, M 2.23, P 2.36, E 2.24
L8: N 2.94, G 2.81, M 1.8, D 3, I 1.85, V 3.88, R 2.93, Q 2.58, S 1.83, T 2.55, P 3.29, C 2.28, K 2.16, F 1.9, H 2.38, Y 1.36
D13: M 2.12, R 2.66, H 1.75, N 2.46, L 1.81, K 1.68, F 1.87, C 2.17, S 2.04, G 3.29, P 2.2, I 2.42, A 1.34, Q 1.91
Y1: H 3.8, N 3.81, T 3.37, W 2.94, K 3.61, M 3.06, G 4.11, D 4.63, P 3.65, V 1.76, Q 4.13, C 3.08, E 4.07, L 2.63, I 2.16, A 2.15
K10: L 1.89, C 1.35, Y 1.61, F 1.68, H 1.97, N 2.6, S 2.83, R 1.43, M 2.41, E 2.23, D 1.91, Q 1.75, T 1.75, A 1.81, V 1.75, I 1.49, G 2.25, P 2.42
R4: Q 2.86, P 2.75, A 2.38, H 2.04, G 2.74, D 3, F 2.12, N 2.09, V 1.88, M 1.69, S 2.77, T 1.84, K 2.41, L 3.6, Y 2.02, C 2.31, E 3.04, I 1.96
A5: E 3.58, C 1.87, P 2, Y 1.41, S 2.33, Q 2.48, T 2.42, M 1.51, K 2.01, H 1.47, N 3, F 2.31, R 1.74, L 1.77, W 4.42, G 1.93, I 1.58, V 1.78, D 3.19
N7: Q 2.39, Y 1.27, W 1.84, V 1.7, H 1.68, C 1.86, T 2.06, S 1.65, D 2.34, K 1.68, I 1.81, F 3.09, E 1.99, G 1.89, A 1.98, R 1.48
T2: Y 2.15, V 2.97, G 2.79, R 2.43, E 3.81, S 2.75, I 1.98, F 2.47, Q 2.29, K 2.49, N 2.93, D 3.75, A 1.32, H 2.4, P 2.75, L 2.76, W 2.01, M 2.24
G3: W 2.88, T 1.94, L 2.11, N 2.83, E 2.94, C 1.64, I 1.86, M 2.68, D 3.99, Q 2.7, A 2.17, F 1.93, S 2.1, V 2.62, Y 2.82, R 2.29, H 2.5, K 2.18, P 2.14
M11: Y 1.31, I 2.32, H 2.47, L 2.44, A 2.02, F 1.73, Q 2.34, V 3.05, T 2.62, E 2.56, C 1.55, S 2.62, P 2.56, G 1.62, R 2.05, N 2.43, K 2.15, W 2.21, D 2.42
P6: F 2.09, Q 2.19, T 2.16, S 2.16, W 5, C 1.65, G 1.68, K 1.43, E 2.82, D 2.31, V 2.11, R 2.44, A 1.88, I 1.85, N 2.49, H 1.09, Y 1.75, M 2.2

Variants of: B2
Experiment: as above
Conditions: c terminus: a fixed tail appended

Protein stability index, by site and new letter:
E21: G 3.24, I 2.99, T 2.4, L 2.69, V 2.46, R 3.02, K 2.48, H 2.95, F 1.7, M 1.46, Y 2.69, P 2.57, A 2.42, S 2.35, Q 2.45, N 2.96, C 2.37, W 3.91
I22: M 3.29, F 2.18, E 4.04, A 3.82, R 4.03, V 2.57, Y 3.35, W 2.92, N 4.22, T 4.01, L 3.11, S 3.97, P 4.54, K 4.29, G 3.66, D 4, Q 3.62, H 4.06, C 3.32
M24: Y 3.86, Q 3.92, S 3.71, V 3.36, E 3.41, I 2.97, R 3.23, F 2.6, N 2.95, L 2.74, H 3.59, T 3.15, K 3.11, P 3.43, G 3.07, C 2.76, D 3.73, W 2.48
R23: V 1.44, E 4.24, L 1.45, A 2.03, N 4.2, I 1.71, T 2.74, D 3.95, F 1.93, G 3.16, Y 2.27, S 2.75, C 2.78, K 3.29, Q 3.29, H 3.14, P 3.67, W 2.03
L19: Q 4.22, Y 3.41, M 3.16, G 4.26, V 3.47, T 4.34, N 3.86, S 4.41, H 3.76, P 4.24, R 2.96, D 3.97, E 4.76, K 3.67, F 2.09, I 3.03, W 3.15
R20: F 1.5, W 2.43, V 1.46, L 2.44, I 1.39, S 3.19, Y 2.25, C 2.92, Q 3.49, H 2.63, P 2.87, M 2.13, E 3.74, T 2.88, D 3.56, G 3.03, K 3.67, N 3.74, A 3.21
